Results from patent publication US20100004182A1 (MARUHA, published 2010).

Assays:
[1] = target: xanthine oxidase (XO) of cow's milk (from Wako Pure Chemical) (cow, UniProt P80457 2-1332); assay: cell-based or functional assay
[2] = target: xanthine oxidase (XO) from butter milk (from Wako Pure Chemical) (UniProt P80457 2-1332); assay: cell-based or functional assay
xanthine oxidase (XO) from butter milk (from Wako Pure Chemical), sequence (P80457 2-1332 limits assumed): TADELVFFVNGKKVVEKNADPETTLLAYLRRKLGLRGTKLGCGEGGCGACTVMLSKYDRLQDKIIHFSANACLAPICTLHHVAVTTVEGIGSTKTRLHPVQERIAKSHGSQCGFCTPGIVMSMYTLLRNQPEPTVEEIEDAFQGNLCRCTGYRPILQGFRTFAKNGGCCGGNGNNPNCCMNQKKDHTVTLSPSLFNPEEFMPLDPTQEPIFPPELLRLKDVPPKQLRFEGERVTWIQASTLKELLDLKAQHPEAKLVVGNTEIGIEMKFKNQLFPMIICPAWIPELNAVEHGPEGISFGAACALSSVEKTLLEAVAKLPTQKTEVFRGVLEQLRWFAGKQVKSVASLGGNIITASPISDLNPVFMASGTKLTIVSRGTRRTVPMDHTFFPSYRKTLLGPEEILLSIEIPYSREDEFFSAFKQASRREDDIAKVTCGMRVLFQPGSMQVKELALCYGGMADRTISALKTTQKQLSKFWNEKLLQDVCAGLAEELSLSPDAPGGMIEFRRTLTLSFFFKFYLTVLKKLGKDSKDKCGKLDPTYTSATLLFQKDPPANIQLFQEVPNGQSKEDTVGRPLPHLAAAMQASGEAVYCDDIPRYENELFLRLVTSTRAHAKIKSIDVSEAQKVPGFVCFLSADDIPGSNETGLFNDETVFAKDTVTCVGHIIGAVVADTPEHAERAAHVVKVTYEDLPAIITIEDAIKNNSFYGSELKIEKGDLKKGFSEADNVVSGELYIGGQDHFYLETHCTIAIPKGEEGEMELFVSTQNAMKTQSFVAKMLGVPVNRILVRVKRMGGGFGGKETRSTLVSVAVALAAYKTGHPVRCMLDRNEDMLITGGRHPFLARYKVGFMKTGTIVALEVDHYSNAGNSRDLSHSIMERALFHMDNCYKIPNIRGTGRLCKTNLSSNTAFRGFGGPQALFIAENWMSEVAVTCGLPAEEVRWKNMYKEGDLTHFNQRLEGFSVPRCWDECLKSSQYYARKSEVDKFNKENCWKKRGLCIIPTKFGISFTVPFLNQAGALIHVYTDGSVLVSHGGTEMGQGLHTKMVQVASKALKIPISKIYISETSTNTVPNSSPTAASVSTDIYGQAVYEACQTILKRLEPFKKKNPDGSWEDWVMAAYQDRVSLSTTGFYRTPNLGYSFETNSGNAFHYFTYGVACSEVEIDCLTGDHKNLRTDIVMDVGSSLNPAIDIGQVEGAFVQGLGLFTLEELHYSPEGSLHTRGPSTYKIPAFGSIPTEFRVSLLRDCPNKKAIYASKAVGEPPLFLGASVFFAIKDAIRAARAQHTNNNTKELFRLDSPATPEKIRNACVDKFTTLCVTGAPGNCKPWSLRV

xanthine oxidase (XO) of cow's milk (from Wako Pure Chemical), sequence (P80457 2-1332 limits assumed): as above

50% inhibitory concentration (IC50) of xanthine oxidase activity (uric acid produced from xanthine, OD at 292 nm) [1] [µM]	50% inhibitory concentration (IC50) of xanthine oxidase activity (uric acid produced from xanthine, OD at 292 nm) [2] [µM]	Binder
1200	–	YLDN [peptide YLDN]
–	3700	YINY [polypeptide having SEQ ID No. 2 (YINY)]

Further lines, the binder ahead of its results:

Binder	50% inhibitory concentration (IC50) of xanthine oxidase activity (uric acid produced from xanthine, OD at 292 nm) [1] [µM]	50% inhibitory concentration (IC50) of xanthine oxidase activity (uric acid produced from xanthine, OD at 292 nm) [2] [µM]
LD [peptide LD]	1700	–
DN [peptide DN]	500	–
LDNY [peptide LDNY]	750	–
